# Measured values published in US20240277770A1 (Genentech, published 2024).
# Legend:
# [1] = target: T1, HLA-C*05:01 (human); experiment: HLA-I IP (W6/32) and targeted MS of monoallelic HMy2.C1R cells expressing the polyantigen cassette
# T1 construct: whole, on cells; MHC class I on a monoallelic cell line
# [2] = target: T2, HLA-A*03:01 (human); experiment: as above
# T2 construct: whole, on cells; MHC class I on a monoallelic cell line
# [3] = target: T3, HLA-A*11:01 (human); experiment: as above
# T3 construct: whole, on cells; MHC class I on a monoallelic cell line
# [4] = target: T4, HLA-B*08:01 (human); experiment: as above
# T4 construct: whole, on cells; MHC class I on a monoallelic cell line
# [5] = target: T3, HLA-A*11:01; experiment: HLA-I IP and targeted MS with hipMHC standards, A*11:01 monoallelic C1R cells (FIG. 12B)
# [6] = target: T5, HLA-C*07:01 (human); experiment: HLA-I IP (W6/32) and targeted MS of monoallelic HMy2.C1R cells expressing the polyantigen cassette
# T5 construct: whole, on cells; MHC class I on a monoallelic cell line
# [7] = target: T6, HLA-C*07:02 (human); experiment: as above
# T6 construct: whole, on cells; MHC class I on a monoallelic cell line
# [8] = target: T7, HLA-C*06:02 (human); experiment: as above
# T7 construct: whole, on cells; MHC class I on a monoallelic cell line
# [9] = target: T8, HLA-B*07:02 (human); experiment: as above
# T8 construct: whole, on cells; MHC class I on a monoallelic cell line
# [10] = target: T9, HLA-B*35:01 (human); experiment: as above
# T9 construct: whole, on cells; MHC class I on a monoallelic cell line
# [11] = target: T10, HLA-A*01:01 (human); experiment: as above
# T10 construct: whole, on cells; MHC class I on a monoallelic cell line
# [12] = target: T11, HLA-A*02:01 (human); experiment: HLA-I IP and untargeted MS of monoallelic cells
# T11 construct: whole, on cells; MHC class I on a monoallelic cell line (HMy2.C1R)
binder,measurement,setting,value
IGDFGLATM,binding result,[1],binds
ASGAFGTVYK,binding result,[2],binds
same,binding result,[3],binds
MIKRSKRNSL,binding result,[4],binds
VVGAGGVGK (also called KRAS G12 wild type 9-mer),binding result,[5],binds
VVGASGVGK,binding result,[2],binds
same,binding result,[3],binds
VVGADGVGK,binding result,[3],binds
VVGAGDVGK,binding result,[2],binds
same,binding result,[3],binds
VVGAGCVGK,binding result,[3],binds
VVGACGVGK,binding result,[3],binds
VVGAAGVGK,binding result,[3],binds
KRNSLALSL,binding result,[6],binds
same,binding result,[7],binds
same,binding result,[8],binds
WVKPIIIGC,binding result,[4],binds
FMKQMNDAL,binding result,[4],binds
CPHRPILQA,binding result,[9],binds
PIIIGHHAY,binding result,[10],binds
ASGAFGTVY,binding result,[3],binds
GRNSFEVHV,binding result,[8],binds
VVVGAAGVGK,binding result,[2],binds
same,binding result,[3],binds
VVVGADGVGK,binding result,[2],binds
same,binding result,[3],binds
ERCPHRPIL,binding result,[4],binds
FKKIKVLAS,binding result,[4],binds
LDTAGKEEY,binding result,[11],binds
SPNGTIQNIL,binding result,[9],binds
KITDFGRAK,binding result,[2],binds
SCMGGMNQR,binding result,[3],binds
LASGAFGTVYK,binding result,[3],binds
YTDVSNMSHLA,binding result,[11],binds
EKSRWSGSHQF,binding result,[6],binds
IMSDSNYVV,binding result,[12],binds
RPIPIKYKAM,binding result,[9],binds
CNTTARAFAVV,binding result,[1],binds
GADGVGKSAL,binding result,[1],binds
AGREEYSAM,binding result,[4],binds
YTDVSNMSH,binding result,[11],binds
DGVGKSAL,binding result,[4],binds
DTAGREEY,binding result,[11],binds
GRNSFEVCV,binding result,[1],binds
ILDTAGKEEY,binding result,[11],binds
ILDTAGREEY,binding result,[11],binds
KPIIIGCH,binding result,[9],binds
FGRAKLLGA,binding result,[4],binds
GARGVGKSA,binding result,[9],binds
GARGVGKSAL,binding result,[9],binds
STDVGFCTL,binding result,[1],binds
RSKRNSLAL,binding result,[9],binds
STRDPLSEITK,binding result,[3],binds
SKRNSLAL,binding result,[4],binds
MPFGSLLDY,binding result,[10],binds
same,binding result,[9],binds
VVVGAGGVGK (also called KRAS G12 wild type 10-mer),binding result,[5],binds
VVVGASGVGK,binding result,[2],binds
same,binding result,[3],binds
VVVGAGCVGK,binding result,[3],binds
VVVGAVGVGK,binding result,[2],binds
same,binding result,[3],binds
VVVGARGVGK,binding result,[2],binds
same,binding result,[3],binds
FGLARYIM,binding result,[4],binds
IIIGGHAY,binding result,[10],binds
IIIGHHAY,binding result,[10],binds
VKPIIIGHHAY,binding result,[10],binds
KMRRKMSP,binding result,[4],binds
